US20180264103A1 (ELITEIMMUNE, published 2018)

Assays:
[1] = biological target: RSV-F (Strain A2) (respiratory syncytial virus (Strain A2)) (UniProt P03420); assay: ELISA, antigen coated on plate, same conditions as R66
[2] = biological target: RSV-F (Strain RSS-2) (respiratory syncytial virus (Strain RSS-2)) (UniProt P11209); assay: as above
RSV-F (Strain A2) = biological target: T1, RSV-F (Strain A2) (respiratory syncytial virus (Strain A2), UniProt P03420 26-529); assay: ELISA, antigen coated on plate, anti-human IgG-HRP detection
T1 construct: Bought protein (Sino Biological Inc.), coated on the ELISA plate; also called glycoprotein F; antigen F of RSV
T1 sequence (P03420 26-529): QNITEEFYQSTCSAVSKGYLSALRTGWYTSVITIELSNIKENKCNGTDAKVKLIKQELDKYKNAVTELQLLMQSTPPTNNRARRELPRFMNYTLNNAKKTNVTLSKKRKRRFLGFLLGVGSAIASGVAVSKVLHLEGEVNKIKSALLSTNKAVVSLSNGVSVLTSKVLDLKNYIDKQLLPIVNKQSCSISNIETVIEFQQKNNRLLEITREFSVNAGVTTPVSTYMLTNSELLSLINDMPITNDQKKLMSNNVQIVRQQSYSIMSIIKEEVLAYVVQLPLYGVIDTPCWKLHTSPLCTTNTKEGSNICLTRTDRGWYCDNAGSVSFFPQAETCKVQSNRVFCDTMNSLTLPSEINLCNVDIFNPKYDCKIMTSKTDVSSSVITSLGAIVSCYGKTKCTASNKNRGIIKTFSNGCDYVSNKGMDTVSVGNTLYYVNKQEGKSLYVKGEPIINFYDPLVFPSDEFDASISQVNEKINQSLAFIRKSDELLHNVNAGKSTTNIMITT
Description: (§1) To prepare coating antigen solution, RSV-F (Strain A2) and RSV-F (Strain RSS-2) (purchased from Sino Biological Inc.) were diluted with PBS (1×) (pH 7.4) buffer to the final concentration of 2 ng/μl. 100 μl of the coating antigen solution was pipetted into each well of a 96-well plate, coated overnight at 2-8° C., and washed 5 times with PBST, then each well was added with 200 μl of blocking solution for blocking for 2 hours at 37° C., and washed 5 times with PBST for 1 minute each wash after completion of blocking.
(§2) Two parallel experiments were performed, and two blank wells were set up to replace the primary antibody with PBST, incubated for 90 minutes at 37° C. and then washed 5 times with PBST.
(§3) The secondary antibody was diluted 5,000 times with the antibody diluent (PBST+1% BSA). 100 μl of diluent was added to each well, incubated for 1 hour at 37° C., then washed 5 times with PBST, added with TMB substrate solution with 100 μl/well, incubated for 15 minutes at room temperature. After the completion of the incubation H₂SO₄ stop solution was added to terminate the reaction. The absorbance of OD₄₅₀ was read on the microplate reader.

RSV-F (Strain RSS-2) = biological target: T2, RSV-F (Strain RSS-2) (respiratory syncytial virus (Strain …, UniProt P11209 26-529)); assay: as above
T2 construct: Bought protein (Sino Biological Inc.), coated on the ELISA plate; also called glycoprotein F; antigen F of RSV
T2 sequence (P11209 26-529): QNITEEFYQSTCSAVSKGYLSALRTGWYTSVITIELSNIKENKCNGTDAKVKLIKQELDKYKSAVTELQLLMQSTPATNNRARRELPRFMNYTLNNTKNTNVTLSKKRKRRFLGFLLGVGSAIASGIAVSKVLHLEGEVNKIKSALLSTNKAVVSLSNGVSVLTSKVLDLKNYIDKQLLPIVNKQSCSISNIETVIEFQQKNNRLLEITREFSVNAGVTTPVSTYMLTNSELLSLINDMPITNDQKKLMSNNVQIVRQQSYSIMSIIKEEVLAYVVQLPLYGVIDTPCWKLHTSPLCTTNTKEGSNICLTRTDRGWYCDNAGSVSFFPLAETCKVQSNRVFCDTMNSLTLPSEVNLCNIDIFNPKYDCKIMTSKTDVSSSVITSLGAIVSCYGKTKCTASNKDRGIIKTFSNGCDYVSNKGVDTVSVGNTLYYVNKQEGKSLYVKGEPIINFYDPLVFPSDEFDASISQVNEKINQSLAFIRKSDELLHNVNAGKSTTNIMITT
Description: as §1, §2, §3

Sequence of RSV-F (Strain RSS-2) (respiratory syncytial virus (Strain RSS-2)) (P11209 26-529): as above
Sequence of RSV-F (Strain A2) (respiratory syncytial virus (Strain A2)) (P03420 26-529): as the sequence (P03420 26-529) above

Molecule	EC50 [1]	EC50 [2]	EC50 (RSV-F (Strain A2))	EC50 (RSV-F (Strain RSS-2))
Palivizumab Synagis (antibody)	4.88 ng/mL	1.88 ng/mL		
fully human anti-RSV monoclonal antibody R66 (antibody, V domains shown, expressed in 293T cells, Protein A purified; heavy chain about 50 kDa, light chain about 22 kDa; also called R66 antibody) VH: EVQLVESGGGLVQPGRSLRLSCTASGFTFADYSMTWVRQAPGKGLEWVGLIKRNAYGGTTEYAASVRGRFTISRDDSRSIAYLQMHSLKSEDTAVYFCLRGYSGYDWEGLDAFEVWGQGTMVTVSS VL: DIQMTQSPSAMSASVGDRVTITCRASQGSSTYLAWFQQKPGKVPKRLIYAVSSLQSGVPSRFSGSGSGTEFTLTISSLQPEDSATYYCLQHNSFPLTFGQGTKVEIK			1.79 ng/mL	1.46 ng/mL
